Source: article PMC11220838, “Factors affecting macromolecule orientations in thin films formed in cryo-EM” (Acta Crystallographica. Section D, Structural Biology, 2024)
Where “and” joins values, the source holds several entries; their conditions need not be identical. Equal entries are not always repeated.

What was measured:
[1] = target: SARS-CoV-2 spike protein with C-terminal tag (SARS-CoV-2); assay: cryo-EM structure
[2] = target: the molecule itself; assay: cryo-EM structure; single-particle cryo-EM, plunge-frozen Quantifoil 0.6/1 grids, 25 mM HEPES pH 7.4, 50 mM NaCl; no additive or CTAB; 4 or 20°C; D3 symmetry
[3] = target: T1, Human C-reactive protein (human), P02741; assay: cryo-EM structure; single-particle cryo-EM, plunge-frozen Quantifoil 1.2/1.3 grids, 20 mM Tris pH 8, 280 mM NaCl, 5 mM CaCl2, 0.03% NaN3; no additive or CTAB, SLS, Tween 20, Tween 80, A8-35; 20°C; settings: remark: other sources report otherwise
T1 chain: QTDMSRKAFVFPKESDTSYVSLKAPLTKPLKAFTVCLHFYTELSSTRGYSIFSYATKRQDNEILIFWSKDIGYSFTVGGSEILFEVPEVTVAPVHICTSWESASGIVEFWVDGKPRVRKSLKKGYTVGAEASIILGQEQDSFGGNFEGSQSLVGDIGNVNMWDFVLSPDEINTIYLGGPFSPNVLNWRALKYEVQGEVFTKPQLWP

“SARS-CoV-2 spike protein with C-terminal tag (domain or fragment)” showed a stoichiometry N [1] of 3.

B1: E. coli PaaZ (enzyme)
chain: QQLASFLSGTWQSGRGRSRLIHHAISGEALWEVTSEGLDMAAARQFAIEKGAPALRAMTFIERAAMLKAVAKHLLSEKERFYALSAQTGATRADSWVDIEGGIGTLFTYASLGSRELPDDTLWPEDELIPLSKEGGFAARHLLTSKSGVAVHINAFNFPCWGMLEKLAPTWLGGMPAIIKPATATAQLTQAMVKSIVDSGLVPEGAISLICGSAGDLLDHLDSQDVVTFTGSAATGQMLRVQPNIVAKSIPFTMEADSLNCCVLGEDVTPDQPEFALFIREVVREMTTKAGQKCTAIRRIIVPQALVNAVSDALVARLQKVVVGDPAQEGVKMGALVNAEQRADVQEKVNILLAAGCEIRLGGQADLSAAGAFFPPTLLYCPQPDETPAVHATEAFGPVATLMPAQNQRHALQLACAGGGSLAGTLVTADPQIARQFIADAARTHGRIQILNEESAKESTGHGSPLPQLVHGGPGRAGGGEELGGLRAVKHYMQRTAVQGSPTMLAAISKQWVRGAKVEEDRIHPFRKYFEELQPGDSLLTPRRTMTEADIVNFACLSGDHFYAHMDKIAAAESIFGERVVHGYFVLSAAAGLFVDAGVGPVIANYGLESLRFIEPVKPGDTIQVRLTCKRKTLKKQRSAEEKPTGVVEWAVEVFNQHQTPVALYSILTLVARQHGDFVD
notes: source: recombinantly overexpressed, purified as described in Sathyanarayanan et al. (2019)
With B1 the “stoichiometry N” value [2] was 6.

B2: Human C-reactive protein, P02741 19-224 (natural protein)
chain: T1 chain
B2 was tested, and the stoichiometry N [3] was 5 and 10.
